This is an account of results in patent US20110091562A1 (GEORGIA TECH RESEARCH, published 2011).

For assay [1], the target named is T1, erythropoietin-producing hepatocellular (Eph) A2 receptor (UniProt P29317 24-976, limits assumed).
T1 construct: whole, on cells; Endogenous receptor on ovarian cancer cell lines
The experiment in a line: flow cytometry on Hey cells after 4 h incubation with fluorescent nanogels. How it is done:
(§1) Flow cytometry. Hey cells were plated at 2.5×10⁵ cells/well in a 12-well, cell culture plate. Cells were allowed to adhere overnight in an incubator at 37° C. in a 5% CO₂ atmosphere. Cells were washed, and fresh medium was added containing YSA-pNIPMAm or SCR-pNIPMAm nanogels at a concentration of 0.8 mg/mL and incubated for four hours. Following incubation, the cells were washed with PBS and removed from the plate by Trypsin-EDTA treatment. The cells were washed with PBS and fixed with 2% (v/v) paraformaldehyde. Cells were analyzed using a LSR Flow Cytometer (BD Biosciences). Data analysis was carried out using FlowJo software.
Background: A flow cytometer gives signals particle by particle.

In assay [2] the target is T1, erythropoietin-producing hepatocellular …. The experiment in a line: flow cytometry on Hey cells, 0.8 mg/mL fluorescent nanogels, 4 h incubation; reference is SCR-labeled nanogels. How it is done:
as §1

T1 sequence (P29317 24-976 limits assumed): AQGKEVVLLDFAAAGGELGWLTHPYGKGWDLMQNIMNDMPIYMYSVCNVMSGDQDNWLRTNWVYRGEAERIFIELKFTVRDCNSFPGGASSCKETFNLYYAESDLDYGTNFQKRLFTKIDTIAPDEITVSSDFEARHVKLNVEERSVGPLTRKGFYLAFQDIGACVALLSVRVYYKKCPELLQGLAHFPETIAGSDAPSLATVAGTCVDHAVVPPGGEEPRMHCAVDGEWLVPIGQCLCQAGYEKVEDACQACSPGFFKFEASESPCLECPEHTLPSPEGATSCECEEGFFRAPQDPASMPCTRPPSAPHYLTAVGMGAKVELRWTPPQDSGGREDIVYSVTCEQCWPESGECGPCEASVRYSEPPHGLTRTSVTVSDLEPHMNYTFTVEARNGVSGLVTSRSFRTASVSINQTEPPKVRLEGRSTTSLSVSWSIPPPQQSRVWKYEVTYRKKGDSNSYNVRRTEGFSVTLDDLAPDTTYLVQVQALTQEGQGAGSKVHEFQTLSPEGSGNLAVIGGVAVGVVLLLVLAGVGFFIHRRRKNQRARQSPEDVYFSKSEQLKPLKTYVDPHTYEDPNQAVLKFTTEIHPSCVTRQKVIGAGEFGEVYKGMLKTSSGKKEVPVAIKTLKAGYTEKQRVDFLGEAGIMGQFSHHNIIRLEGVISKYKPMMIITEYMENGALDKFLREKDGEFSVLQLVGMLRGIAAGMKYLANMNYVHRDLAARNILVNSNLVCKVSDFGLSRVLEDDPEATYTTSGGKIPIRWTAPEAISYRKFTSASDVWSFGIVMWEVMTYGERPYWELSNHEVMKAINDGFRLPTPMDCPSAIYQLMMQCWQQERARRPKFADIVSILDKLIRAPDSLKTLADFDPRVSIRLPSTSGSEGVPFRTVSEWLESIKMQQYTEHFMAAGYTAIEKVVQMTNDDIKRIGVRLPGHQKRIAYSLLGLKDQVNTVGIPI

B1: Scrambled (SCR) peptide (DYPSMAMYSPSVC) conjugated to core/shell pNIPMAm nanogels (peptide)
peptide: DYPSMAMYSPSVC
modifications: C-terminal cysteine coupled by maleimide (EMCA) to primary amines of the nanogel shell
notes: Control peptide with the same amino acid composition as YSA, tethered to the same nanogels; also called SCR-pNIPMAm nanogels; SCR-labeled nanogels
For the molecule B1, in assay [1], the binding result was “no binding (tested: 0.8 mg/mL nanogels)”.

B2: YSA peptide (YSAYPDSVPMMSC) conjugated to core/shell pNIPMAm nanogels (peptide)
peptide: YSAYPDSVPMMSC
modifications: C-terminal cysteine coupled by maleimide (epsilon-maleimidocaproic acid, EMCA) to primary amines of the nanogel shell
notes: The peptide that was made and conjugated carries the C-terminal Cys; also called YSA-conjugated nanogels; YSA-pNIPMAm nanogels
Turning to B2, in assay [2], the “fold fluorescence relative to SCR-labeled nanogels” value is ~10 fold.
